Assay results: publication PMC11189558, “Mutations found in cancer patients compromise DNA binding of the winged helix protein STK19”

Key:
STK19 (31-254) [1] = target: T1, STK19 (31-254) (human, UniProt P49842 31-254); assay: EMSA; n = 4; 20 mM HEPES pH 7.4, 100 mM NaCl, 1 mM MgCl2, 1 mg/ml BSA, 2 mM DTT, 5% glycerol; 30 min on ice; native 5% PAGE in 1X TBE; conditions: protein: recombinant, tags: GST cleaved, GPLGS left at N-terminus
STK19 (31-254) [2] = target: T1, STK19 (31-254); assay: EMSA; n = 2; 20 mM HEPES pH 7.4, 100 mM NaCl, 1 mM MgCl2, 1 mg/ml BSA, 2 mM DTT, 5% glycerol; 30 min on ice; native 5% PAGE in 1X TBE; conditions: protein: recombinant; tags: GST cleaved; GPLGS left at N-terminus; label: 5' IRDye 700 on rU30; blunt

T1 sequence (P49842 31-254): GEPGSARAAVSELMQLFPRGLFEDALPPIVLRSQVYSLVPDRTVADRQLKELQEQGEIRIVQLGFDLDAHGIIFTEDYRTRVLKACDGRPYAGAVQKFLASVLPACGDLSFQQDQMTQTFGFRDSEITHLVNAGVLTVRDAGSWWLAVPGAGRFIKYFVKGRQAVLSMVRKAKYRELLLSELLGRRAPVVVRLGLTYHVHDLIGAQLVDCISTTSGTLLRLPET

B1: dsDNA 30-mer (dT-dA)30 (dsDNA)
DNA 1: TTTTTTTTTTTTTTTTTTTTTTTTTTTTTT
DNA 2: AAAAAAAAAAAAAAAAAAAAAAAAAAAAAA
Kd (STK19 (31-254) [1]; label: 5' IRDye 700 on dT30, blunt): 2.2 µM

TTTTTTTTTTTTTTTTTTTTTTTTTTTTTT (ssDNA) [ssDNA dT30]
Kd (STK19 (31-254) [1]; label: 5' IRDye 700): 14.1 µM

B2: dsRNA 30-mer (rU-rA)30 (dsRNA)
RNA 1: UUUUUUUUUUUUUUUUUUUUUUUUUUUUUU
RNA 2: B1 DNA 2
Kd (STK19 (31-254) [2]): 3.2 µM
